Drawing on the Human Domainome abundance scans (Beltran et al. 2025), this text covers abundance fitness for 57 substances.

± gives the uncertainty stated by the source.

A short description of the data set: abundance fitness (aPCA) (normalised: wild type 0, dead -1); higher = more abundant; growth selection in yeast, the domain comes from the species named. As to conditions: Homo sapiens.
With “NEDD4-like E3 ubiquitin-protein ligase WWP2 V459R, O00308”, the abundance fitness is -0.127 ± 0.051.
The value for “NEDD4-like E3 ubiquitin-protein ligase WWP2 V459S, O00308” was -0.097 ± 0.045; that for “NEDD4-like E3 ubiquitin-protein ligase WWP2 V459T, O00308” was -0.025 ± 0.059.
“NEDD4-like E3 ubiquitin-protein ligase WWP2 V459W, O00308” returned an abundance fitness of -0.18 ± 0.07.
The substance “NEDD4-like E3 ubiquitin-protein ligase WWP2 V459Y, O00308” gave an abundance fitness of -0.335 ± 0.071.
Substance “NEDD4-like E3 ubiquitin-protein ligase WWP2 V463A, O00308” yielded an abundance fitness of -0.136 ± 0.036.
In turn, “NEDD4-like E3 ubiquitin-protein ligase WWP2 V463C, O00308” registered an abundance fitness of -0.307 ± 0.086.
For the substance “NEDD4-like E3 ubiquitin-protein ligase WWP2 V463E, O00308”, the abundance fitness is -0.16 ± 0.056.
For “NEDD4-like E3 ubiquitin-protein ligase WWP2 V463F, O00308”, the abundance fitness is -0.288 ± 0.039.
For “NEDD4-like E3 ubiquitin-protein ligase WWP2 V463G, O00308”, the abundance fitness was -0.972 ± 0.039.
In the case of “NEDD4-like E3 ubiquitin-protein ligase WWP2 V463H, O00308”, the abundance fitness was -0.422 ± 0.093.
“NEDD4-like E3 ubiquitin-protein ligase WWP2 V463I, O00308” had an abundance fitness of -0.165 ± 0.072.
In turn, “NEDD4-like E3 ubiquitin-protein ligase WWP2 V463K, O00308” gave an abundance fitness of -0.466 ± 0.062.
Substance “NEDD4-like E3 ubiquitin-protein ligase WWP2 V463L, O00308” registered an abundance fitness of -0.041 ± 0.035.
In turn, “NEDD4-like E3 ubiquitin-protein ligase WWP2 V463N, O00308” registered an abundance fitness of -0.386 ± 0.056.
The substance “NEDD4-like E3 ubiquitin-protein ligase WWP2 V463P, O00308” came in with an abundance fitness of -1.29 ± 0.47.
Regarding “NEDD4-like E3 ubiquitin-protein ligase WWP2 V463Q, O00308”, the abundance fitness is -0.129 ± 0.08.
For the substance “NEDD4-like E3 ubiquitin-protein ligase WWP2 V463R, O00308”, the abundance fitness is -0.352 ± 0.038.
“NEDD4-like E3 ubiquitin-protein ligase WWP2 V463T, O00308” displayed an abundance fitness of -0.209 ± 0.069.
Next, “NEDD4-like E3 ubiquitin-protein ligase WWP2 V463W, O00308”: -0.414 ± 0.068; “NEDD4-like E3 ubiquitin-protein ligase WWP2 V463Y, O00308”: -0.26 ± 0.076.
As to “NEDD4-like E3 ubiquitin-protein ligase WWP2 W450C, O00308”, the abundance fitness is -0.446 ± 0.051.
The substance “NEDD4-like E3 ubiquitin-protein ligase WWP2 W450D, O00308” gave an abundance fitness of -0.552 ± 0.041.
The value for “NEDD4-like E3 ubiquitin-protein ligase WWP2 W450E, O00308” was -0.492 ± 0.042; that for “NEDD4-like E3 ubiquitin-protein ligase WWP2 W450F, O00308” was -0.026 ± 0.075.
“NEDD4-like E3 ubiquitin-protein ligase WWP2 W450H, O00308” yielded an abundance fitness of -0.464 ± 0.085.
For “NEDD4-like E3 ubiquitin-protein ligase WWP2 W450I, O00308”, the abundance fitness was -0.197 ± 0.083.
“NEDD4-like E3 ubiquitin-protein ligase WWP2 W450K, O00308” yielded an abundance fitness of -0.598 ± 0.084.
Next, “NEDD4-like E3 ubiquitin-protein ligase WWP2 W450L, O00308”: -0.421 ± 0.048; “NEDD4-like E3 ubiquitin-protein ligase WWP2 W450M, O00308”: -0.4 ± 0.071; “NEDD4-like E3 ubiquitin-protein ligase WWP2 W450N, O00308”: -0.581 ± 0.099.
In the case of “NEDD4-like E3 ubiquitin-protein ligase WWP2 W450R, O00308”, the abundance fitness is -0.735 ± 0.047.
As to “NEDD4-like E3 ubiquitin-protein ligase WWP2 W450S, O00308”, the abundance fitness is -0.676 ± 0.057.
The value for “NEDD4-like E3 ubiquitin-protein ligase WWP2 W450T, O00308” was -0.475 ± 0.075; that for “NEDD4-like E3 ubiquitin-protein ligase WWP2 W450V, O00308” was -0.175 ± 0.033; that for “NEDD4-like E3 ubiquitin-protein ligase WWP2 W450Y, O00308” was -0.211 ± 0.081.
For the substance “NEDD4-like E3 ubiquitin-protein ligase WWP2 Y454A, O00308”, the abundance fitness is -0.036 ± 0.056.
The value for “NEDD4-like E3 ubiquitin-protein ligase WWP2 Y454C, O00308” was -0.037 ± 0.048; that for “NEDD4-like E3 ubiquitin-protein ligase WWP2 Y454D, O00308” was -0.461 ± 0.12; that for “NEDD4-like E3 ubiquitin-protein ligase WWP2 Y454E, O00308” was -0.046 ± 0.052.
For the substance “NEDD4-like E3 ubiquitin-protein ligase WWP2 Y454F, O00308”, the abundance fitness is -0.083 ± 0.059.
“NEDD4-like E3 ubiquitin-protein ligase WWP2 Y454G, O00308” displayed an abundance fitness of -0.428 ± 0.045.
“NEDD4-like E3 ubiquitin-protein ligase WWP2 Y454H, O00308” yielded an abundance fitness of -0.306 ± 0.066.
Next, “NEDD4-like E3 ubiquitin-protein ligase WWP2 Y454I, O00308”: -0.065 ± 0.062; “NEDD4-like E3 ubiquitin-protein ligase WWP2 Y454K, O00308”: -0.015 ± 0.067.
The substance “NEDD4-like E3 ubiquitin-protein ligase WWP2 Y454L, O00308” registered an abundance fitness of -0.035 ± 0.031.
As for “NEDD4-like E3 ubiquitin-protein ligase WWP2 Y454M, O00308”, the abundance fitness is -0.185 ± 0.063.
As to “NEDD4-like E3 ubiquitin-protein ligase WWP2 Y454N, O00308”, the abundance fitness was -0.121 ± 0.077.
“NEDD4-like E3 ubiquitin-protein ligase WWP2 Y454P, O00308” gave an abundance fitness of -0.592 ± 0.068.
Turning to “NEDD4-like E3 ubiquitin-protein ligase WWP2 Y454Q, O00308”, the abundance fitness came to 0.008 ± 0.071.
As for “NEDD4-like E3 ubiquitin-protein ligase WWP2 Y454R, O00308”, the abundance fitness is -0.029 ± 0.033.
The substance “NEDD4-like E3 ubiquitin-protein ligase WWP2 Y454S, O00308” gave an abundance fitness of -0.132 ± 0.043.
Take “NEDD4-like E3 ubiquitin-protein ligase WWP2 Y454T, O00308”: the abundance fitness is -0.006 ± 0.057.
The value for “NEDD4-like E3 ubiquitin-protein ligase WWP2 Y454V, O00308” was -0.047 ± 0.048; that for “NEDD4-like E3 ubiquitin-protein ligase WWP2 Y454W, O00308” was -0.056 ± 0.035; that for “NEDD4-like E3 ubiquitin-protein ligase WWP2 Y461A, O00308” was -0.669 ± 0.072.
As to “NEDD4-like E3 ubiquitin-protein ligase WWP2 Y461C, O00308”, the abundance fitness is -0.538 ± 0.061.
